Data reported in paper PMC12808100 (Nature Communications, 2025).
One block for each binder: values may come before it. *: point of attachment. carboxyfluorescein = carboxyfluorescein on the N-terminus (no linker); Biotin = O=C1N[C@H]2[C@H](CS[C@H]2CCCCC(=O)*)N1; TTDS = Trioxatridecan-succinamic acid linker

Assays:
[1] = target: T1, His6-AviTag-MBP-TEV-POLE2 (human, UniProt P56282 1-527, biotin on the AviTag (BirA co-expressed, biotin in the medium)); assay: fluorescence polarisation; competitive; dilution series of the non-fluorescent DONSON peptide added to 50 nM fluoDONSON and 3.85 μM POLE2 protein; same buffer as the direct experiment; details: both partners purified
T1 construct: POLE2, residues 1-527; a TEV site lies between MBP and POLE2; also called His6-avi-MBP-tagged POLE2; avi-His6-MBP-POLE2; source: E. coli BL21(DE3), co-expressed with BirA, purified (HisTrap, MBPtrap, Q HP); not shown: His6, N-terminal, kept; AviTag, N-terminal, kept; MBP, N-terminal, kept
T1 sequence (P56282 whole entry, the tested form may be a part): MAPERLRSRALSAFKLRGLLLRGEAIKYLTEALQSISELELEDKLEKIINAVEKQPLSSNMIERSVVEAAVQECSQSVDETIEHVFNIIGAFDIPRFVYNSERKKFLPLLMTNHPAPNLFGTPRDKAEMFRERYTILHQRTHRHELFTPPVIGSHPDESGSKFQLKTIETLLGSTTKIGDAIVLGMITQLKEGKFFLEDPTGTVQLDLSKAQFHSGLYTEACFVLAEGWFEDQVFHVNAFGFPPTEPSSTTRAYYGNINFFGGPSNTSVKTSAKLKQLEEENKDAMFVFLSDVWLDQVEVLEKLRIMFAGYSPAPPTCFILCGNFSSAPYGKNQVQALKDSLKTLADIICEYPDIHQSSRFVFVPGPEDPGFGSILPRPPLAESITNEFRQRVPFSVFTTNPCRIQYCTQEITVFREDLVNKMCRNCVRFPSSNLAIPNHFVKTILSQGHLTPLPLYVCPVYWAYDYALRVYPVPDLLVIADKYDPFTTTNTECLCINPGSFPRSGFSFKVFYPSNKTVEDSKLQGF

HA-POLE2 = target: T2, HA-POLE2 (human, UniProt P56282 1-527); assay: native holdup (nHU) titration with dot blot; DONSON_71-88-saturated streptavidin resin mixed with control resin at various proportions; extracts of HEK293T cells expressing HA-tagged POLE2 variants; 4 °C, 2 h; depletion quantified with an antibody against the HA tag; apparent; details: one partner purified
T2 construct: POLE2, residues 1-527; also called HA-POLE2 wild type; source: HEK293T, transfected, in cell extract; not shown: HA, N-terminal, kept
T2 sequence (P56282 whole entry, the tested form may be a part): as above

[2] = target: T1, His6-AviTag-MBP-TEV-POLE2; assay: fluorescence polarisation; direct; dilution series of MBP-POLE2 added to 50 nM fluoDONSON peptide; 20 mM Hepes pH 7.5, 150 mM NaCl, 0.5 mM TCEP, 0.01% Tween 20; details: both partners purified
[3] = target: T1, His6-AviTag-MBP-TEV-POLE2; assay: native holdup (nHU) titration with dot blot; purified His6-avi-MBP-tagged POLE2 as bait on resin; extracts of HEK293T cells transfected with HA-tagged full length proteins; 4 °C, 2 h; anti-HA dot blot; apparent; details: one partner purified

- Kd [1]: 13 µM
- Kd (HA-POLE2): 0.28 µM
B1: NPF motif peptide of DONSON (residues 71-88) (peptide)
peptide: {Biotin-TTDS}-GPAAARRNPFARLDNRPR-NH2
notes: Protein downstream neighbor of Son (DONSON), residues 71-88; also called DONSON_71-88; DONSON NPF motif; source: synthetic peptide (ABI 443 A synthesizer, Fmoc), HPLC purified

- Kd [2]: 16 µM
B2: fluoDONSON peptide (residues 71-88) (peptide)
peptide: carboxyfluorescein-GPAAARRNPFARLDNRPR-NH2
notes: DONSON, residues 71-88; also called fluorescein-labeled DONSON_71-88 peptide; fluorescent NPF motif peptide; source: synthetic peptide, HPLC purified

- fold weaker affinity than the wild type [3]: 10 fold
B3: HA-ERCC6L, full length, NPF motif mutated to KAF (natural protein, human, UniProt Q2NKX8 1-1250, looked up)
chain: MEASRRFPEAEALSPEQAAHYLRYVKEAKEATKNGDLEEAFKLFNLAKDIFPNEKVLSRIQKIQEALEELAEQGDDEFTDVCNSGLLLYRELHNQLFEHQKEGIAFLYSLYRDGRKGGILADDMGLGKTVQIIAFLSGMFDASLVNHVLLIMPTNLINTWVKEFIKWTPGMRVKTFHGPSKDERTRNLNRIQQRNGVIITTYQMLINNWQQLSSFRGQEFVWDYVILDEAHKIKTSSTKSAICARAIPASNRLLLTGTPIQNNLQELWSLFDFACQGSLLGTLKTFKMEYENPITRAREKDATPGEKALGFKISENLMAIIKPYFLRRTKEDVQKKKSSNPEARLNEKNPDVDAICEMPSLSRKNDLIIWIRLVPLQEEIYRKFVSLDHIKELLMETRSPLAELGVLKKLCDHPRLLSARACCLLNLGTFSAQDGNEGEDSPDVDHIDQVTDDTLMEESGKMIFLMDLLKRLRDEGHQTLVFSQSRQILNIIERLLKNRHFKTLRIDGTVTHLLEREKRINLFQQNKDYSVFLLTTQVGGVGLTLTAATRVVIFDPSWNPATDAQAVDRVYRIGQKENVVVYRLITCGTVEEKIYRRQVFKDSLIRQTTGEKKNPFRYFSKQELRELFTIEDLQNSVTQLQLQSLHAAQRKSDIKLDEHIAYLQSLGIAGISDHDLMYTCDLSVKEELDVVEESHYIQQRVQKAQFLVEFESQNKEFLMEQQRTRNEGAWLREPVFPSSTKKKCPKLNKPQPQPSPLLSTHHTQEEDISSKMASVVIDDLPKEGEKQDLSSIKVNVTTLQDGKGTGSADSIATLPKGFGSVEELCTNSSLGMEKSFATKNEAVQKETLQEGPKQEALQEDPLESFNYVLSKSTKADIGPNLDQLKDDEILRHCNPWPIISITNESQNAESNVSIIEIADDLSASHSALQDAQASEAKLEEEPSASSPQYACDFNLFLEDSADNRQNFSSQSLEHVEKENSLCGSAPNSRAGFVHSKTCLSWEFSEKDDEPEEVVVKAKIRSKARRIVSDGEDEDDSFKDTSSIKAFNTSLFQFSSVKQFDASTPKNDISPPGRFFSSQIPSSVNKSMNSRRSLASRRSLINMVLDHVEDMEERLDDSSEAKGPEDYPEEGVEESSGEASKYTEEDPSGETLSSENKSSWLMTSKPSALAQETSLGAPEPLSGEQLVGSPQDKAAEATNDYETLVKRGKELKECGKIQEALNCLVKALDIKSADPEVMLLTLSLYKQLNNN
notes: ERCC6L, residues 1-1250; also called mutated version of ERCC6L; source: HEK293T, transfected, in cell extract; not shown: HA, N-terminal, kept

- fold weaker affinity than the wild type [3]: ~4 fold
B4: HA-TTF2, full length, N-terminal NPF motif mutated to KAF (natural protein, human, UniProt Q9UNY4 1-1162, looked up)
chain: MEEVRCPEHGTFCFLKTGVRDGPNKGKSFYVCRADTCSFVRATDIPVSHCLLHEDFVVELQGLLLPQDKKEYRLFFRCIRSKAEGKRWCGSIPWQDPDSKEHSVSNKSQHASETFHHSSNWLRKAFKVLDKNQEPALWKQLIKGEGEEKKADKKQREKGDQLFDQKKEQKPEMMEKDLSSGLVPKKKQSVVQEKKQEEGAEIQCEAETGGTHKRDFSEIKSQQCQGNELTRPSASSQEKSSGKSQDVQRESEPLREKVTQLLPQNVHSHNSISKPQKGGPLNKEYTNWEAKETKAKDGPSIQATQKSLPQGHFQERPETHSVPAPGGPAAQAAPAAPGLSLGEGREAATSSDDEEEDDVVFVSSKPGSPLLFDSTLDLETKENLQFPDRSVQRKVSPASGVSKKVEPSDPVARRVYLTTQLKQKKSTLASVNIQALPDKGQKLIKQIQELEEVLSGLTLSPEQGTNEKSNSQVPQQSHFTKTTTGPPHLVPPQPLPRRGTQPVGSLELKSACQVTAGGSSQCYRGHTNQDHVHAVWKITSEAIGQLHRSLESCPGETVVAEDPAGLKVPLLLHQKQALAWLLWRESQKPQGGILADDMGLGKTLTMIALILTQKNQEKKEEKEKSTALTWLSKDDSCDFTSHGTLIICPASLIHHWKNEVEKRVNSNKLRVYLYHGPNRDSRARVLSTYDIVITTYSLVAKEIPTNKQEAEIPGANLNVEGTSTPLLRIAWARIILDEAHNVKNPRVQTSIAVCKLQACARWAVTGTPIQNNLLDMYSLLKFLRCSPFDEFNLWRSQVDNGSKKGGERLSILTKSLLLRRTKDQLDSTGRPLVILPQRKFQLHHLKLSEDEETVYNVFFARSRSALQSYLKRHESRGNQSGRSPNNPFSRVALEFGSEEPRHSEAADSPRSSTVHILSQLLRLRQCCCHLSLLKSALDPMELKGEGLVLSLEEQLSALTLSELRDSEPSSTVSLNGTFFKMELFEGMRESTKISSLLAELEAIQRNSASQKSVIVSQWTNMLKVVALHLKKHGLTYATIDGSVNPKQRMDLVEAFNHSRGPQVMLISLLAGGVGLNLTGGNHLFLLDMHWNPSLEDQACDRIYRVGQQKDVVIHRFVCEGTVEEKILQLQEKKKDLAKQVLSGSGESVTKLTLADLRVLFGI
notes: TTF2, residues 1-1162; only the N-terminal NPF motif mutated; also called TTF2 mutant; source: HEK293T, transfected, in cell extract; not shown: HA, N-terminal, kept
